The results in this text go back to the supplement of paper PMC9112550, “Optimization of the antimicrobial peptide Bac7 by deep mutational scanning” (BMC Biology, 2022).

The data set deals with Escherichia coli TOP10. As to the kind of experiment: shrunken log2 fold change of peptide-encoding DNA abundance (4.5 h post-induction vs induction); higher = less antimicrobial activity (less host growth inhibition). The following applies: time post-induction: 4.5 h; library: site-saturation at positions 5, 18, 19, 20.
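Also: peptides expressed intracellularly from a pBAD plasmid library in pooled LB shake-flask culture, induced with 0.3% L-arabinose, DNA abundance read by NGS, three biological replicates, DESeq2 with apeglm shrinkage.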

Regarding RRIRMRPPRLPRPRPRPAYRPRP, the “shrunken log2 fold change” value is 0.196.

With RRIRWRPPRLPRPRPRPDWLPRP, the “shrunken log2 fold change” value turned out to be 0.111.

On to RRIRVRPPRLPRPRPRPKKWPRP, for which the “shrunken log2 fold change” value was -0.00649.

Turning to RRIRERPPRLPRPRPRPGKHPRP, the “shrunken log2 fold change” value was -0.324.

Take RRIRPRPPRLPRPRPRPMTFPRP: the “shrunken log2 fold change” value was -0.0264.

As to RRIRVRPPRLPRPRPRPEEGPRP, the “shrunken log2 fold change” value is -0.01.

With RRIRMRPPRLPRPRPRPFVNPRP, the “shrunken log2 fold change” value turned out to be 1.6.

For RRIRARPPRLPRPRPRPATVPRP, the “shrunken log2 fold change” value was 0.214.

Consider RRIRIRPPRLPRPRPRPVPLPRP, for which the “shrunken log2 fold change” value is -0.442.

On to RRIRKRPPRLPRPRPRPYHKPRP, for which the “shrunken log2 fold change” value was 0.0411.

Turning to RRIRPRPPRLPRPRPRPSRQPRP, the “shrunken log2 fold change” value was 0.357.

For RRIRWRPPRLPRPRPRPHWNPRP, the “shrunken log2 fold change” value was -0.676.

As for RRIRGRPPRLPRPRPRPCKGPRP, the “shrunken log2 fold change” value is -0.0939.

RRIRWRPPRLPRPRPRPTLGPRP: the “shrunken log2 fold change” value came out at 0.079.

For the sequence RRIRKRPPRLPRPRPRPKYIPRP, the “shrunken log2 fold change” value was -0.0449.

RRIRHRPPRLPRPRPRPPIRPRP: the “shrunken log2 fold change” value came out at 0.309.

RRIRKRPPRLPRPRPRPKNEPRP: the “shrunken log2 fold change” value came to 0.345.

With RRIRRRPPRLPRPRPRPRIRPRP, the “shrunken log2 fold change” value came out at 0.179.

RRIRMRPPRLPRPRPRPCVEPRP: the “shrunken log2 fold change” value came out at 0.755.

Consider RRIRHRPPRLPRPRPRPFWAPRP, for which the “shrunken log2 fold change” value stood at 0.245.

For RRIRVRPPRLPRPRPRPRIKPRP, the “shrunken log2 fold change” value was -0.125.

As for RRIRERPPRLPRPRPRPHTHPRP, the “shrunken log2 fold change” value is -1.01.

For RRIRTRPPRLPRPRPRPYFAPRP, the “shrunken log2 fold change” value was -0.193.

With RRIRWRPPRLPRPRPRPGMVPRP, the “shrunken log2 fold change” value was found to be 0.628.

Take RRIRLRPPRLPRPRPRPPVNPRP: the “shrunken log2 fold change” value was determined as 0.168.

As to RRIRFRPPRLPRPRPRPHPAPRP, the “shrunken log2 fold change” value was 0.0971.

On to RRIRRRPPRLPRPRPRPMNVPRP, for which the “shrunken log2 fold change” value was -0.156.

Take RRIRPRPPRLPRPRPRPMFHPRP: the “shrunken log2 fold change” value was -0.289.

For RRIRYRPPRLPRPRPRPWLHPRP, the “shrunken log2 fold change” value was -0.991.

As for RRIRHRPPRLPRPRPRPLNDPRP, the “shrunken log2 fold change” value was determined as 0.00159.

As to RRIRYRPPRLPRPRPRPWHYPRP, the “shrunken log2 fold change” value was -0.809.

For the sequence RRIRWRPPRLPRPRPRPTPYPRP, the “shrunken log2 fold change” value is 0.284.

With RRIRTRPPRLPRPRPRPLIKPRP, the “shrunken log2 fold change” value was -1.06.

Consider RRIRVRPPRLPRPRPRPSKFPRP, for which the “shrunken log2 fold change” value is -0.579.

For the sequence RRIRDRPPRLPRPRPRPAPKPRP, the “shrunken log2 fold change” value stood at 0.0948.

For RRIRFRPPRLPRPRPRPAEAPRP, the “shrunken log2 fold change” value came out at 0.254.

For RRIRKRPPRLPRPRPRPVTCPRP, the “shrunken log2 fold change” value is -0.0146.

As to RRIRRRPPRLPRPRPRPFCVPRP, the “shrunken log2 fold change” value was determined as 1.05.

Regarding RRIRGRPPRLPRPRPRPKYNPRP, the “shrunken log2 fold change” value was 0.02.

As to RRIRWRPPRLPRPRPRPHKIPRP, the “shrunken log2 fold change” value was -0.0312.

Regarding RRIRPRPPRLPRPRPRPQAKPRP, the “shrunken log2 fold change” value is 0.277.

RRIRGRPPRLPRPRPRPFITPRP: the “shrunken log2 fold change” value came to 0.0604.

Turning to RRIRFRPPRLPRPRPRPLTLPRP, the “shrunken log2 fold change” value is -0.337.

Regarding RRIRDRPPRLPRPRPRPDHHPRP, the “shrunken log2 fold change” value is -0.616.

Take RRIRRRPPRLPRPRPRPEMCPRP: the “shrunken log2 fold change” value was 0.11.

For the sequence RRIRYRPPRLPRPRPRPPPKPRP, the “shrunken log2 fold change” value was found to be 1.24.

Consider RRIRIRPPRLPRPRPRPKHQPRP, for which the “shrunken log2 fold change” value is -0.495.

Take RRIRFRPPRLPRPRPRPYDQPRP: the “shrunken log2 fold change” value was -0.0152.

Take RRIRARPPRLPRPRPRPKREPRP: the “shrunken log2 fold change” value stood at 0.422.

On to RRIRVRPPRLPRPRPRPSQPPRP, for which the “shrunken log2 fold change” value is -0.112.

On to RRIRKRPPRLPRPRPRPNRYPRP, for which the “shrunken log2 fold change” value was 0.0446.

For RRIRDRPPRLPRPRPRPDHMPRP, the “shrunken log2 fold change” value was -0.0107.

Consider RRIRPRPPRLPRPRPRPQNTPRP, for which the “shrunken log2 fold change” value is -0.407.

Take RRIRRRPPRLPRPRPRPRPPPRP: the “shrunken log2 fold change” value came out at 0.931.

Take RRIRHRPPRLPRPRPRPNGEPRP: the “shrunken log2 fold change” value came out at 0.164.

In the case of RRIRARPPRLPRPRPRPCADPRP, the “shrunken log2 fold change” value amounted to 0.734.

As to RRIRTRPPRLPRPRPRPICLPRP, the “shrunken log2 fold change” value is -0.14.

Take RRIRNRPPRLPRPRPRPKNSPRP: the “shrunken log2 fold change” value was -0.161.

Take RRIRARPPRLPRPRPRPDMLPRP: the “shrunken log2 fold change” value was -0.0619.

RRIRIRPPRLPRPRPRPCNEPRP: the “shrunken log2 fold change” value is -0.0608.

Take RRIRARPPRLPRPRPRPISYPRP: the “shrunken log2 fold change” value is -0.545.

As to RRIRNRPPRLPRPRPRPMCEPRP, the “shrunken log2 fold change” value was -0.0162.

Turning to RRIRSRPPRLPRPRPRPHHIPRP, the “shrunken log2 fold change” value is -1.12.

As for RRIRVRPPRLPRPRPRPFENPRP, the “shrunken log2 fold change” value is -0.0486.

With RRIRNRPPRLPRPRPRPWPRPRP, the “shrunken log2 fold change” value was -0.0347.

As for RRIRIRPPRLPRPRPRPSCHPRP, the “shrunken log2 fold change” value was -0.243.

As for RRIRCRPPRLPRPRPRPKLAPRP, the “shrunken log2 fold change” value was 0.551.

For RRIRSRPPRLPRPRPRPYHPPRP, the “shrunken log2 fold change” value is -0.00174.

For RRIRFRPPRLPRPRPRPEIGPRP, the “shrunken log2 fold change” value is -0.0537.

For RRIRVRPPRLPRPRPRPVDEPRP, the “shrunken log2 fold change” value was found to be 0.144.

As to RRIRKRPPRLPRPRPRPDFEPRP, the “shrunken log2 fold change” value turned out to be 0.0238.

In the case of RRIRWRPPRLPRPRPRPSHYPRP, the “shrunken log2 fold change” value was -0.557.

On to RRIRSRPPRLPRPRPRPENGPRP, for which the “shrunken log2 fold change” value was determined as 0.0751.

RRIRERPPRLPRPRPRPNVLPRP: the “shrunken log2 fold change” value is -0.0106.

For the sequence RRIRDRPPRLPRPRPRPPEQPRP, the “shrunken log2 fold change” value is 0.261.

In the case of RRIRIRPPRLPRPRPRPSVEPRP, the “shrunken log2 fold change” value is -0.947.

RRIRRRPPRLPRPRPRPLQKPRP: the “shrunken log2 fold change” value is 0.44.

As to RRIRNRPPRLPRPRPRPTQNPRP, the “shrunken log2 fold change” value came to 0.332.

RRIRCRPPRLPRPRPRPMMIPRP: the “shrunken log2 fold change” value was -0.044.

For the sequence RRIRIRPPRLPRPRPRPPPIPRP, the “shrunken log2 fold change” value was 0.141.

Turning to RRIRVRPPRLPRPRPRPGNPPRP, the “shrunken log2 fold change” value is -0.104.

As to RRIRTRPPRLPRPRPRPVEEPRP, the “shrunken log2 fold change” value was -0.08.

Consider RRIRCRPPRLPRPRPRPQLCPRP, for which the “shrunken log2 fold change” value is 0.192.

Consider RRIRERPPRLPRPRPRPKQMPRP, for which the “shrunken log2 fold change” value is -0.19.

Take RRIRRRPPRLPRPRPRPFCNPRP: the “shrunken log2 fold change” value was -0.259.

Take RRIRYRPPRLPRPRPRPQQSPRP: the “shrunken log2 fold change” value is -0.454.

Turning to RRIRCRPPRLPRPRPRPLNDPRP, the “shrunken log2 fold change” value is 0.0553.

As to RRIRWRPPRLPRPRPRPGFNPRP, the “shrunken log2 fold change” value is 0.00388.

With RRIRFRPPRLPRPRPRPENFPRP, the “shrunken log2 fold change” value came out at 0.0164.

As to RRIRRRPPRLPRPRPRPIQGPRP, the “shrunken log2 fold change” value was -0.00136.

As to RRIRQRPPRLPRPRPRPHFWPRP, the “shrunken log2 fold change” value is -0.0983.

In the case of RRIRCRPPRLPRPRPRPIMCPRP, the “shrunken log2 fold change” value came to 0.0272.

On to RRIRWRPPRLPRPRPRPWYSPRP, for which the “shrunken log2 fold change” value was -0.534.

In the case of RRIRTRPPRLPRPRPRPTYLPRP, the “shrunken log2 fold change” value was -0.827.

As for RRIRMRPPRLPRPRPRPYFKPRP, the “shrunken log2 fold change” value was -0.647.

Regarding RRIRKRPPRLPRPRPRPMSEPRP, the “shrunken log2 fold change” value was found to be 0.148.

For RRIRQRPPRLPRPRPRPATTPRP, the “shrunken log2 fold change” value came out at 0.351.

Turning to RRIRHRPPRLPRPRPRPTYGPRP, the “shrunken log2 fold change” value was -0.106.

For RRIRMRPPRLPRPRPRPNHFPRP, the “shrunken log2 fold change” value was -0.436.

For RRIRSRPPRLPRPRPRPSTAPRP, the “shrunken log2 fold change” value is -0.0171.

With RRIRLRPPRLPRPRPRPCKCPRP, the “shrunken log2 fold change” value was -0.0362.

Turning to RRIRSRPPRLPRPRPRPTIEPRP, the “shrunken log2 fold change” value is -0.0439.

Consider RRIRDRPPRLPRPRPRPVFFPRP, for which the “shrunken log2 fold change” value is 0.208.

As for RRIRQRPPRLPRPRPRPMLTPRP, the “shrunken log2 fold change” value is -0.185.

Consider RRIRGRPPRLPRPRPRPPHFPRP, for which the “shrunken log2 fold change” value was found to be 0.67.

Take RRIRYRPPRLPRPRPRPHLTPRP: the “shrunken log2 fold change” value is -0.466.

Turning to RRIRARPPRLPRPRPRPNADPRP, the “shrunken log2 fold change” value worked out at 0.825.

In the case of RRIRIRPPRLPRPRPRPQGDPRP, the “shrunken log2 fold change” value turned out to be 0.0169.

Regarding RRIRQRPPRLPRPRPRPFMKPRP, the “shrunken log2 fold change” value was -0.0158.

For the sequence RRIRTRPPRLPRPRPRPVMNPRP, the “shrunken log2 fold change” value is -0.143.

As to RRIRWRPPRLPRPRPRPQRTPRP, the “shrunken log2 fold change” value is -0.0113.

With RRIRDRPPRLPRPRPRPQFLPRP, the “shrunken log2 fold change” value was -0.225.

Take RRIRGRPPRLPRPRPRPYYYPRP: the “shrunken log2 fold change” value was -0.824.

As for RRIRRRPPRLPRPRPRPVNFPRP, the “shrunken log2 fold change” value is -0.0106.

In the case of RRIRRRPPRLPRPRPRPIHPPRP, the “shrunken log2 fold change” value was -0.261.

With RRIRFRPPRLPRPRPRPTAVPRP, the “shrunken log2 fold change” value was 0.117.

As to RRIRVRPPRLPRPRPRPLYMPRP, the “shrunken log2 fold change” value is -0.128.

Turning to RRIRHRPPRLPRPRPRPTWAPRP, the “shrunken log2 fold change” value stood at 0.303.

For the sequence RRIRRRPPRLPRPRPRPATWPRP, the “shrunken log2 fold change” value was 0.359.

With RRIRCRPPRLPRPRPRPRISPRP, the “shrunken log2 fold change” value was -0.248.

In the case of RRIRMRPPRLPRPRPRPHCHPRP, the “shrunken log2 fold change” value is -0.137.

In the case of RRIRDRPPRLPRPRPRPGQRPRP, the “shrunken log2 fold change” value came to 0.0563.

Regarding RRIRMRPPRLPRPRPRPQDKPRP, the “shrunken log2 fold change” value is 0.132.

Take RRIRTRPPRLPRPRPRPKEGPRP: the “shrunken log2 fold change” value was -0.0199.

RRIRSRPPRLPRPRPRPLDCPRP: the “shrunken log2 fold change” value is -0.212.
